Data: patent US20080038273A1 (INSTITUT NATIONAL DE LA SANTE ET DE LA RECHERCHE MEDICALE …, published 2008)

Target: T1, Recombinant human CD28 (human, UniProt P10747 19-152, limits assumed)
T1 construct: also called CD28 molecule
Assay: BIACORE, recombinant human CD28 immobilized
Source text: Recombinant human CD28 was immobilized on the biosensor (BIACORE) detector.

Ka: 2.86e+09 M⁻¹
Kd: 0.349 nM
B1: CD28.3 scFv/α1-antitrypsin fusion protein (other)
chain: DYKDIVKLQQSGAELVKPGASVRLSCKASGYTFTEYIIHWIKLRSGQGLEWIGWFYPGSNDIQYNAKFKGKATLTADKSSSTVYMELTGLTSEDSAVYFCARRDDFSGYDALPYWGQGTMVTVSSGGGGSGGGGSGGGGSDIQMTQSPASLSVSVGETVTITCRTNENIYSNLAWYQQKQGKSPQLLIYAATHLVEGVPSRFSGSGSGTQYSLKITSLQSEDFGNYYCQHFWGTPCTFGGGTKLEIKRTVAAPSEFNKITPNLAEFAFSLYRQLAHQSNSTNIFFSPVSIATAFAMLSLGTKADTHDEILEGLNFNLTEIPEAQIHEGFQELLRTLNQPDSQLQLTTGNGLFLSEGLKLVDKFLEDVKKLYHSEAFTVNFGDTEEAKKQINDYVEKGTQGKIVDLVKELDRDTVFALVNYIFFKGKWERPFEVKDTEEEDFHVDEVTTVKVPMMKRLGMFNIQHCKKLSSWVLLMKYLGNATAIFFLPDEGKLQHLENELTHDIITKFLENEDRRSASLHLPKLSITGTYDLKSVLGQLGITKVFSNGADLSGVTEEAPLKLSKAVHKAVLTIDEKGTEAAGAMFLEAIPMSIPPEVKFNKPFVFLMIEQNTKSPLFMGKVVNPTQKLEGEFEQKLISEEDLNHHHHH
notes: The pIG6 product would also carry DYKD at the N-terminus; not shown: c-myc marker and polyhistidine marker of the vector (pIG6 or pSECTagB)
